# Test: soluble on expression in E. coli; label from the status in PepcDB or PDB records
row,Sequence,soluble on expression in E. coli
1,MLFMIEVEIFPHRYLKASTTEKFLNKIYDLKTVERVVIHGQPLPKVITYGPARGLPVNHTERKIIHVKGVPVELTVMAGRFWITLSDDSELDKLDEICKEMFPFGYNLRVGKFLKDRPTVTDYIKYGEDGVFLINEMDRRLIGMVDPRSRMANLEHHHHHH,not soluble
2,MTVTDRIFQNVAELSVPNFFITVEFSVMGNEMPEHIESFVLEKYQAILHGANGRKFVYTEGGWRLFFTFFPTDKVVDERYALKNKVQMKFHK,not soluble
3,TGRGVKYWFCYGTKCYYFIMNKTTWSGCKANCQHYSVPIVKIEDEDELKFLQRHVIPEGYWIGLSYDKKKKEWAWIDNGPSKFDMKIRKMNFKSRGCVFLSKARIEDTDCNIPYYCICGKKLDKFPD,soluble
4,MSHTSNFTRNFHCRSSSNKRSESEKSPSFSKKRRRARALDPDEFIPPVEGPDVQKIDSETSRKCHSIKGFNVNKDGSVRRLEDNSKYEHNKSSRQKRSEAAPLENSEGKSTKSRKLSSPSKKSNKKSISKKSDRSKVSKVKRSPKTDKELEKKPSSIYERKDVDGHDDLKVPNMRSRKHSENSKNLFDYFFWFSLQTSKMKSLNYIEMLSNGDIKAPISAVFCPTRGSSTAPNCFAIIGVWRRRKKRSVSKLIKIGFSIPQSMEILTKKGQLFPNLITRQIPMEIRAVNFAHLHFSHRLVDFASGDDVLCDRIQHTIHVQS,not soluble
5,MGSDKIHHHHHHMAKFQSYVICTSPRSGSTLLCNMLAATGVAGKPKSYFHHGSITDWLSYLNLDINPSLPESDLLAAIFEAAVETGRNGTGLFGLRLQRHSFDLFVEKLAVLYPTLASDRQRIEAAFGSTLFIHLTRLDKVQQAVSYVKAQQTGLWHRAPDGTELERLSAPRDPIYDAAKIHASYDEFIQYDRAWQSWFDMQGIQPLRITYEALCADPIASLKDVLVQLGVNGEAASSVVPGTAKLADGINQSWETRFRTEHLHSDPL,not soluble
6,MAAKDRIQAIKQMVANDKKVTVSNLSGIFQVTEETIRRDLEKLEDEGFLTRTYGGAVLNTAVLTENIHFYKRASSFYEEKLLIARKALPFIDNKTTMAADSSSTVMELLKLLQDRSDLTLLTNSAEAIHVLAQSEIKVVSTGGELNKNTLSLQGRITKEIISRYHVDIMVMSCKGLDINSGALDSNEAEAEIKKTMIRQATEVALLVDHSKFDRKAFVQLADFSHINYIITDKSPGAEWIAFCKDNNIQLVWLEHHHHHH,soluble
7,MPQFTTARRARHRAEQMFALVADVEKYPQFLPMCEALSIRSRKERDGKTLLIADMTVGYKLIRETFTSQVLLKPDENIIDVKYIDGPFRYLDNRWTFRPTDGGAQCDVEFFIDYEFKSRTLGLLMGTMFDLAFKKFSEAFEKRADQIYGLGELEHHHHHH,soluble
8,LTQPLDHRHPEKGSFRQRVIVGHVGYDRPTVIVTEGYGAGYALRPTYREELSELFDANMIFVEHRYFLESTPEPCDWQYLTAENSAEDLHAVTTAFKTLYPGKWISTGISKGGQTSLLYRVFFPDDVDVSVPYVAPLCYAREDGRHEPFLRRVGTEADRKKIEDFQLEVLKRKARLLPRFEKMCTEKNYTFRAPLEEIYDFCVLEYSFSIWQWGTDIRSIPETSASDDTLLDHLLAISGPSYFIVDSPTLSFFVQAARELGYYGYDIAPFKPYLSIKTSKDYLRRLMLPEDMRKMKFDKTLSNKIVRFLKKNDPKMIFIYGQNDPWTAAGVTWLKNKKNIHVFVEPGGSHLARIGTMSEDQKQKVMSLLRGWLEE,not soluble
9,MEKGTPPTHDSDNWMGRAKEIGNGGWDQFQFLFFDPNGYLYAVSNDKLYKASPPQSDTDNWIARATEIGSGGWSGFKFLFFHPNGYLYAVRGQRFYKALPPVSNQD,soluble
10,SAAFPQWTRVDDKRFELALLQIPEGSPNFIENIAYYLQKPVKEVEYYYCALVHDIERIESGKYVLPKYPEDDYVKLTEAGESKGNGKKTGIPWSEEEQRLFLEGLNKFGKGDWKNISRYCVKSRTSTQVASHAQKYFARQKQESTNTKRPSIHDMTLGVAVNVPGSNLESTGQQPHFGDQIPSNQYYPSQENFRGFDQRW,soluble
11,RAKKETTMTDVRIQALHFDATDQLKDFVQKKISKLNRLSDGITGAEVVLKLVKPETVQNKEASIRLYIPGDDLFAEKIADTFEEAIDLTVDALKRQIEKRKEQRK,not soluble
12,MVILLQFYKEENFKKTEIGEIPEDWEVRELKDILEVIRNGLTAKQNKDKIGYPITRIETISDSKIDITKLGYVEDIKQEDIAKYRLIIGDILFSHINSEEHIGKVAIYEGKPEFLLHGMNLLLLRPNKNKIEPYYLLYLLRHFKQKNIFKYIAKRAVNQSSINQTQLKHLKIPLPPLEEQKQIAKILSDFDNLIGTINKQIEVLNKAKKGMMKKLFTKGVFEHKSFKKSEIGEIPEDWEVVELGNEKYFKIIMGQSPPSSSYNKEGEGVPFLQGKAEFGNIYPNPVLYTNKPLKVVDDEDILISVRAPVGDVNIAPFKLCIGRGLAGIKSNKEKVDNFFVFYYLSYIKPKIEYLGGGAVFKAITKKDLESIKIPLPPLEEQKAIAKRLKAIDDLIEIKRKEKEQIEKAKKKIMNLLLTGKIRVKT,soluble
13,MGSDKIHHHHHHMAAINAAVLQALRTMVRSEFQNALTKTESLYLKIASVVPSNTKSNTYGWLGSMPTMREWIGARVINSIKEHGYSITNRTFETTIGICRDDVEDEVIGTYKPMVQALAQEGEEFPDDLVFELLADGFSTLCYDGQNFFDTDHPVNEKHDGTGDNVSVANMALDAAYTGEPWFLLDTTRPLKPVIFQERRKLDLNTLFNPTDPAVWTNNEFQFGTDMRCEAGFGFWQMAFANKRALNADNLWDTIEKMKAFKRDGGKKLKIRPSLLVVPSSLEQAATKLLTRELIDENGTTVENELKGKVELLVVPQL,not soluble
14,QSQGGGSVTKKRKLESSESRSSFSQHARTSGRVAVEEVDEEGKFVRLRNKSNEDQSMGNWQIRRQNGDDPLMTYRFPPKFTLKAGQVVTIWASGAGATHSPPTDLVWKAQNTWGCGSSLRTALINSTGEEVAMRKLVR,soluble
15,MSPPDLEDEPFMENQDVAGENDLFVLDGRQDPPNLPQNHLEEVVGEIVENLERWHFAEILADGAEIHEDIIEDVGGDEVEEEEVDIDWVSPLSKEYSKPFSKS,not soluble
16,MSLTSHLLKAEIHCHLEGAAPPALVVKQAEKYGIDTSGFLRDGQYVWSDFAEFIQCYDAVAQVFKSDEDYAVLTETYLTELAEANTIYSELIISPDHGDRIGLGADAYLAGVAEGIRIAKEKTGIETRIIVTGERHFGPERVIAAAEYAARIRHPLVTGFNMAGEERMGRVADYARAFDIARDAGLGLTIHAGEVCGPESVADALDLVKPSRIGHGVRAIEDAALISRLVETGTVLEVCPGSNIALSVYPDFASHPLKALSDAGVRVCISSDDPPFFFTSLAREYALAADAFGFNDAEINRMTRTALECAFVDEATRERLLARLGDAEGHHHHHH,soluble
17,SLRKVGLTALEWLKQHPEIKQHKESSLYEQLFASQQWQQAQTIGMIRSLPLELSTQPIFERAMQESKQVAVPRTFKGGKMHFYQVFPETVYDTSAFGVEEPPLTAAEITATAIDLLIVPGIVFNRAGYRIGFGGGFYDRYLEHFSGHSCSLVFSEQLHEQWQPEAFDQPIEQLFIQ,soluble
18,MNVAIIGATGYSGAELFRLLHGHPHVSRCDVFSSSQDGVHVSESFPHVGSVDGAVLHKLEIEALSRYDAVFFATPPGVSGEWAPALVDRGVKVIDLSGDFRLKDGAVYEQWYGRQTAPAEYLQKAVYGLTEWNREAVREAVLLSNPGCYPTATLLGLAPLVKEGLIKEDSIIVDAKSGVSGAGRKAGLGTHFSEVNENVKIYKVNVHQHIPEIEQTLQTWNEAMEPITFSTHLIPMTRGIMATIYAKAKQSISPNDLVDLYKTSYEGSPFVRIRQLGQFPATKEVYGSNYCDIGLAYDERTGRVTVVSVIDNLMKGAAGQAVQNFNLMMGWDEAEGLQSLPIYP,not soluble
19,SQILDRKGRLIANIYDKEFRFYARFEEIPPRFIESLLAVEDTLFFEHGGINLDAIMRAMIKNAKSGRYTEGGSTLTQQFVKNMVLTREKTLTRKLKEAIISIRIEKVLSKEEILERYLNQTFFGHGYYGVKTASLGYFKKPLDKLTLKEITMLVALPRAPSFYDPTKNL,not soluble
20,AGQFGTDYNAAIKVDTQTEFCGYVGTKGSSSVAAMFVEGNEVDSLSAGDKAIIVLGETPFYAESGGQCGDAGEIRTEAGVFRVEDTQKLGNAIAHHGVMAEGVLAKGDEVATIVDAERRAAISLN,not soluble
21,MFRLLVPTYYSYSVPLRFPFCKIYRYSTSNKMVAIKDITARQILDSRGNPTVEVDLLTDGGCFRAAVPSGASTGIYEALELRDKDQTKFMGKGVMKAVENIHKIIKPALIGKDPCDQKGIDKLMVEELDGTKNEWGWCKSKLGANAILAVSMACCRAGAAAKGMPLYKYIATLAGNPTDKMVMPVPFFNVINGGSHAGNKVAMQEFMIAPVGASTIQEAIQIGAEVYQHLKVVIKKKYGLDATNVGDEGGFAPNISGATEALDLLMEAIKVSGHEGKVKIAADVAASEFFLQDDKVYDLDFKTPNNDKSQRKTGEELRNLYKDLCQKYPFVSIEDPFDQDDFHSYAQLTNEVGEKVQIVGDDLLVTNPTRIEKAVQEKACNGLLLKVNQIGTVSESIEACQLAQKNKWGVMVSHRSGETEDSFIADLVVGLRTGQIKTGAPCRSERLCKYNQLMRIEESLGSDCQYAGAGFRHPN,soluble
22,MASVTEQFNDIISLYSTKLEHTSLRQDSPEYQGLLLSTIKKLLNLKTAIFDRLALFSTNETIDDVSTASIKFLAVDYYLGLLISRRQSNDSDVAQRQSMKLIYLKKSVESFINFLTLLQDYKLLDPLVGEKLGNFKDRYNPQLSELYAQPKNNKDLSGAQLKRKEKIELFQRNKEISTKLHCLELELKNNDEDHDHDELLRELYLMRLHHFSLDTINNIEQNLFECEMLSNFLK,soluble
23,MAEHDFETISSETLHTGAIFALRRDQVRMPGGGIVTREVVEHFGAVAIVAMDDNGNIPMVYQYRHTYGRRLWELPAGLLDVAGEPPHLTAARELREEVGLQASTWQVLVDLDTAPGFSDESVRVYLATGLREVGRPEAHHEEADMTMGWYPIAEAARRVLRGEIVNSIAIAGVLAVHAVTTGFAQPRPLDTEWIDRPTAFAARRAER,soluble
24,MVRLEDYGTWDEALKRLEASRKALLALLREADPAWLSAPLREGAWTPLMVAEHVALVEDSTARVLRRLRRLAAGENLPPVPVKPGEFKDGKPQAPEGVRPKGGLSLEEVLALLDRARAFLLEEVAKADPQNPATFPHPFFGELNPLGWLRAAAYHEAHHLKALQASLPR,soluble
25,MIPKKSSFIVTYAFRIKPTSPQDSGSNRMIIVITPTYKRITRLADITRLANTLSQVENLHWIVIEDGESTIPNVQNILERSELLYTYVAHRTASGYPARGWYQRDMALKLIRTNPSQILGEHEGEAVIYFADDDNSYDLRLFEDYIRNVKKLGLWAVGLAGGAAVEAPNVVNKKVTSFNFKWKSKRRFAVDMAGFAINLDYILNSSAVFGTECKRGDGAPETCLLEDLGFDLNDIEPFGYEKEASEIYSSLYSMVFYLQKNNEILVWHTKTSYSGMKVKEAEKFGYFVEP,not soluble

# From the DeepSol protein solubility set
